Source: US20150111822A1

Biological target: Fzd7/Sdc4 co-receptor complex (mouse) (UniProt Q61090)
Test: cell-based or functional assay

Chain of Fzd7/Sdc4 co-receptor complex (mouse) (O35988 24-198, chain 2 of 2, other chains not shown): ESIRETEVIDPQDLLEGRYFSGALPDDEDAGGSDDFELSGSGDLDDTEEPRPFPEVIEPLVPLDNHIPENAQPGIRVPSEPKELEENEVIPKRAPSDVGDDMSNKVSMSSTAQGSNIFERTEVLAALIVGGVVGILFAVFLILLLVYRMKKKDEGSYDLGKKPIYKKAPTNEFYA

increase in the proportion of symmetric cell divisions, COL&Wnt7a against COL alone, 42 h	increase in numbers of Pax7+/YFP+ cells, FN&Wnt7a condition, 72 h	increase in numbers of satellite stem cells, FN&Wnt7a relative to COL&Wnt7a, 72 h	increase in the proportion of symmetric Pax7+/YFP- cell divisions, FN&Wnt7a, 42 h	Substance
108%	–	–	–	recombinant Wnt7a (R&D Systems) (ligand)
–	38%	156%	163%	human plasma fibronectin (BD biosciences) (from UniProt P02751 32-2296) (ligand)
